# Data: article PMC11602132
# Molecular target: Non-structural protein 15 (Nsp15) from SARS-CoV-2 (SARS-CoV-2)
# Experiment: SEC
substance,measurement,value
Non-structural protein 15 (Nsp15) from SARS-CoV-2 (enzyme),stoichiometry N,6
